For this experiment, the target named is T1, CD6 lymphocyte surface receptor (human (endogenous in PBMC)) (UniProt P30203).
T1 sequence: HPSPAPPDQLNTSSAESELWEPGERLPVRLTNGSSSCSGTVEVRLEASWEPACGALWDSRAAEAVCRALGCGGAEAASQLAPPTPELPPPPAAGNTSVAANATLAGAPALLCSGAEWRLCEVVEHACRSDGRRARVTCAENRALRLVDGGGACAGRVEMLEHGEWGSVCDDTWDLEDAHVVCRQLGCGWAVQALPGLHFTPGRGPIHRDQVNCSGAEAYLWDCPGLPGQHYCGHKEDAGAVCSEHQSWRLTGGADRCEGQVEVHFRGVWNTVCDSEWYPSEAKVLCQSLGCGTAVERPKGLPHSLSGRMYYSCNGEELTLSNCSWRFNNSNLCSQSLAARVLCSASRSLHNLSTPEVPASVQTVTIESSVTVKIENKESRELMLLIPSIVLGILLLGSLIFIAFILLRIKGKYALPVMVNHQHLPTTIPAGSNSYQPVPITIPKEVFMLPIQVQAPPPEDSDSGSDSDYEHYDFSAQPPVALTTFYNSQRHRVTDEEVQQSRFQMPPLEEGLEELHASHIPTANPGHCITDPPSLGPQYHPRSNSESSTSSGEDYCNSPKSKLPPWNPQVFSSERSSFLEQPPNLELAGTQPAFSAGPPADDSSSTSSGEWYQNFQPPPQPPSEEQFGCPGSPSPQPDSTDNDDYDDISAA

B1: Recombinant Human ALCAM/CD166 Fc Chimera (Fc fusion)
chain: WYTVNSAYGDTIIIPCRLDVPQNLMFGKWKYEKPDGSPVFIAFRSSTKKSVQYDDVPEYKDRLNLSENYTLSISNARISDEKRFVCMLVTEDNVFEAPTIVKVFKQPSKPEIVSKALFLETEQLKKLGDCISEDSYPDGNITWYRNGKVLHPLEGAVVIIFKKEMDPVTQLYTMTSTLEYKTTKADIQMPFTCSVTYYGPSGQKTIHSEQAVFDIYYPTEQVTIQVLPPKNAIKEGDNITLKCLGNGNPPPEEFLFYLPGQPEGIRSSNTYTLTDVRRNATGDYKCSLIDKKSMIASTAITVHYLDLSLNPSGEVTRQIGDALPVSCTISASRNATVVWMKDNIRLRSSPSFSSLHYQDAGNYVCETALQEVEGLKKRESLTLIVEGKPQIKMTKKTDPSGLSKTIICHVEGFPKPAIQWTITGSGSVINQTEESPYINGRYYSKIIISPEENVTLTCTAENQLERTVNSLNVSAISIPEHDEADEISDENREKVNDQAK
B1 had a tyrosine phosphorylation of CD6 immunoprecipitated from human PBMC plated on plate-bound ALCAM (immunoblot for p-Tyr) of more than 2.5 fold.

(Values after paper PMC5495335.)
